The target of the assay is 4-HNE-modified recombinant C99 with mutation Lys53Arg (human). The experiment in a line: SDS-PAGE with Western blot; recombinant C99 or C99^Lys53Arg reacted with 50-fold (R)-4-HNE (25 mM HEPES, 150 mM NaCl, pH 7.4, 37 °C, 1 h); C99 detected by C1/6.1 antibody, adducts by 4-HNE antibody; oligomer bands on the gel. For orientation: Immunoblotting shows a protein as a band on a membrane.

One may read the stoichiometry N as a count of units in the complex or per binding partner.

Take “4-HNE-modified recombinant C99 with mutation Lys53Arg (domain or fragment)”: the stoichiometry N is 2.
